We go through 7 substances from article PMC6449081.

In test [1] the target is Dec E73R with a C-terminal histidine tag (phage L). The test is described as follows: native gel or EMSA; native gel of purified Dec variants in solution. (A gel shift assay detects complexes by their altered migration in electrophoresis.)
Test [2] concerns the target Dec K30D with a C-terminal histidine tag (phage L). The test is described as above.
The target in test [3] is Dec Y31A with a C-terminal histidine tag (phage L). The description is as above.
Test [4] deals with Dec Y49E with a C-terminal histidine tag (phage L). Described as above.
The target in test [5] is Dec Y71A with a C-terminal histidine tag (phage L). The test is described as above.
For test [6], the target named is phage L decoration protein Dec, capsid-bound trimer in native phage L virions (phage L). The test is described as follows: cryo-EM structure; native phage L virions, vitrified; icosahedral reconstruction, 4.2 Å; NMR OB-fold of Dec and a coat homology model fitted into the map.
Test [7] has as its target phage P22 coat protein E81R:E323R, in P22 phage particles (phage P22) (UniProt P26747). Kind of test: co-sedimentation; purified Dec added to purified P22 phages with WT or variant coat protein; free Dec separated by cesium chloride density gradient sedimentation; phage bands TCA-precipitated, SDS-PAGE, Coomassie bands of coat and Dec quantitated and normalized to the ratio in native P22 particles bound with Dec.

Where only a bound is given, the exact number is not on record here.

For orientation: stoichiometry N means a count of units in the complex or per binding partner. “Dec E73R with a C-terminal histidine tag (natural protein)” came in with a stoichiometry N in test [1] of 3.

Consider “Dec K30D with a C-terminal histidine tag (natural protein)”, for which, in test [2], the stoichiometry N was 3.

Take “Dec Y31A with a C-terminal histidine tag (natural protein)”: the stoichiometry N in test [3] amounted to 3.

Turning to “Dec Y49E with a C-terminal histidine tag (natural protein)”, the stoichiometry N in test [4] is 3.

“Dec Y71A with a C-terminal histidine tag (natural protein)” yielded a stoichiometry N in test [5] of 3.

In turn, “phage L decoration protein Dec, capsid-bound trimer in native phage L virions (natural protein)” returned a stoichiometry N in test [6] of 3.

For “recombinant wild type Dec with a C-terminal histidine tag (natural protein)”, the Dec binding, normalized to WT (%) in test [7] is less than 20%.
